This note sets out measurements from publication PMC4218952.

The assay has as its target Myc-GluK2a (UniProt Q13002). The assay can be described thus: co-IP; HEK293T cells transfected with FLAG-parkin and Myc-GluK2a or its truncation mutants; 500 ug lysate, Myc, parkin or FLAG antibody overnight at 4 C, Protein A or G agarose, washes with 500 mM NaCl, 1% Triton X-100; also after activation with 10 mM glutamate.
Chain of UniProt Q13002 (Q13002 32-908): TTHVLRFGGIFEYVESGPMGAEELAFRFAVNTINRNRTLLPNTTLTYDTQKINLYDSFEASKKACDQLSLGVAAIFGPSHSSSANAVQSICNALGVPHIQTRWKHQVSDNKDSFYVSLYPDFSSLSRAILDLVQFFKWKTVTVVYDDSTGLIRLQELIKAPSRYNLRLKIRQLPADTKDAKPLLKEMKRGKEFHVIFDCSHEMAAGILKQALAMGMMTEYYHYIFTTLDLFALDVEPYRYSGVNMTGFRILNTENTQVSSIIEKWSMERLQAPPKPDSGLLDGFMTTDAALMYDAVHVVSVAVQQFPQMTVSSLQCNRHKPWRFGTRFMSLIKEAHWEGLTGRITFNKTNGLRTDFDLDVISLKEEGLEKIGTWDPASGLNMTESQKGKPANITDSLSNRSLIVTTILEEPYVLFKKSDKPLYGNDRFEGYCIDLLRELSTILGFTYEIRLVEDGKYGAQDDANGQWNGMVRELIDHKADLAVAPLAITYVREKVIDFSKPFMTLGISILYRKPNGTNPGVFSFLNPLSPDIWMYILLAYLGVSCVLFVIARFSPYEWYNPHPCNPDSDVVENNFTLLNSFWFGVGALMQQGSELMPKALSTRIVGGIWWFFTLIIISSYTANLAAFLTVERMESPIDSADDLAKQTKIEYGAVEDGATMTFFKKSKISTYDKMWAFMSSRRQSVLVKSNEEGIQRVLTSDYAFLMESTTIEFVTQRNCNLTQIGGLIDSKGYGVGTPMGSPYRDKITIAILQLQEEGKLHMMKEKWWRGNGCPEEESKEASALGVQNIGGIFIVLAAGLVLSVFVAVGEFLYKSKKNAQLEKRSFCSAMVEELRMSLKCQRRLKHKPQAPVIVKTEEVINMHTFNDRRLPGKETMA

Chain of FLAG-parkin (O60260 whole entry, the tested form may be a part): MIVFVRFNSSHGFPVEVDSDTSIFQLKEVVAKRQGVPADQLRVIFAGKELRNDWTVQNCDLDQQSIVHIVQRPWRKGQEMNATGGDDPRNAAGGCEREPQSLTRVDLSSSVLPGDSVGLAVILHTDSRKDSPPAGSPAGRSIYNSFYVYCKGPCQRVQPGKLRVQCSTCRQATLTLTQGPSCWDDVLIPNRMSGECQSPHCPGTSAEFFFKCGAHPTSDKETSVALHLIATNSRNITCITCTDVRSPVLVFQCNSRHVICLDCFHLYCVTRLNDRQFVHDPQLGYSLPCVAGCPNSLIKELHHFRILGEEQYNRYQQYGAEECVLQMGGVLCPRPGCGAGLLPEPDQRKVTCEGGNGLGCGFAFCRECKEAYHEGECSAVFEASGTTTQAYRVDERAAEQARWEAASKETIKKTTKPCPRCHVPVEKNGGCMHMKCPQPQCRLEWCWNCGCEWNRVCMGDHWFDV

The substance “FLAG-parkin (from UniProt O60260 1-465) (enzyme)” came in with a co-immunoprecipitation after 10 mM glutamate, relative to untreated (fold of untreated) of 2.7.
